The source of these data is patent US20230322953A1 (HARBOUR BIOMED SHANGHAI, published 2023).

As a reminder, the EC50 is the concentration needed to bring the measured effect to its halfway point.

Sequences and labels used below:
T1: human BCMA (human, UniProt Q02223 1-184)
T1 construct: whole, on cells; also called hBCMA; TNFRSF17
T1 sequence (looked up): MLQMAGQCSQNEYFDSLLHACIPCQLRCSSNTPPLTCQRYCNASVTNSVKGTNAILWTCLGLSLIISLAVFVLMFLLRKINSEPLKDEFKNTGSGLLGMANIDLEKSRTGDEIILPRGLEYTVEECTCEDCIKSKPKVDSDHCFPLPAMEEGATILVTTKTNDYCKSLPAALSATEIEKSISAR

B1: PR002892 (bispecific antibody, human IgG1, lambda, L234A L235A)
light: QAVVTQEPSLTVSPGGTVTLTCRSSTGAVTTSNYANWVQQKPGQAPRGLIGGTNKRAPWTPARFSGSLLGDKAALTLLGAQPEDEAEYFCALWYSNLWVFGGGTKLTVLGQPKAAPSVTLFPPSSEELQANKATLVCLISDFYPGAVTVAWKADSSPVKAGVETTTPSKQSNNKYAASSYLSLTPEQWKSHRSYSCQVTHEGSTVEKTVAPTECS
heavy: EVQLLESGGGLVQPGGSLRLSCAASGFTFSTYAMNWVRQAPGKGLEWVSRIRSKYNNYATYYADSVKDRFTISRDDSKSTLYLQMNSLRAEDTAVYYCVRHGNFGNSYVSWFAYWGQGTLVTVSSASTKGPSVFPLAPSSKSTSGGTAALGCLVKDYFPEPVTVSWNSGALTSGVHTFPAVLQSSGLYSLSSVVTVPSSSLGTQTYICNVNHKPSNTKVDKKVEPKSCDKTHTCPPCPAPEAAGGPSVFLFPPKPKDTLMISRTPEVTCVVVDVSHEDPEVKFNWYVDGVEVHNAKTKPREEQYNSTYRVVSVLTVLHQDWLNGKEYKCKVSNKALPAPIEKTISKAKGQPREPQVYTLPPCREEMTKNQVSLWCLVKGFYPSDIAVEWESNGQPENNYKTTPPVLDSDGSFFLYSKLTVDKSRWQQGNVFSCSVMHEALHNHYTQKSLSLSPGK
chain: EVQLVETGGGLIQPGGSLRLSCAASGFTVSDNYMTWVRQAPGKGLEWVSVIFSGGNTYYADSVKGRFTISRDNAKNTLYLQMNSLRAEDTALYYCARRNYDDTRGTDVFDIWGQGTMVTVSSGGGGSEVQLVETGGGLIQPGGSLRLSCAASGFTVSDNYMTWVRQAPGKGLEWVSVIFSGGNTYYADSVKGRFTISRDNAKNTLYLQMNSLRAEDTALYYCARRNYDDTRGTDVFDIWGQGTMVTVSSASEPKSSDKTHTCPPCPAPEAAGGPSVFLFPPKPKDTLMISRTPEVTCVVVDVSHEDPEVKFNWYVDGVEVHNAKTKPREEQYNSTYRVVSVLTVLHQDWLNGKEYKCKVSNKALPAPIEKTISKAKGQPREPQVCTLPPSREEMTKNQVSLSCAVKGFYPSDIAVEWESNGQPENNYKTTPPVLDSDGSFFLVSKLTVDKSRWQQGNVFSCSVMHEALHNHYTQKSLSLSPGK
B2: PR002310 (bispecific antibody, human IgG1, lambda, L234A L235A)
light: B1 light
heavy: EVQLLESGGGLVQPGGSLRLSCAASGFTFSTYAMNWVRQAPGKGLEWVSRIRSKYNNYATYYADSVKDRFTISRDDSKSTLYLQMNSLRAEDTAVYYCVRHGNFGNSYVSWFAYWGQGTLVTVSSASTKGPSVFPLAPSSKSTSGGTAALGCLVKDYFPEPVTVSWNSGALTSGVHTFPAVLQSSGLYSLSSVVTVPSSSLGTQTYICNVNHKPSNTKVDKKVEPKSCDKTHTCPPCPAPEAAGGPSVFLFPPKPKDTLMISRTPEVTCVVVDVSHEDPEVKFNWYVDGVEVHNAKTKPREEQYNSTYRVVSVLTVLHQDWLNGKEYKCKVSNKALGAPIEKTISKAKGQPREPQVYTLPPCREEMTKNQVSLWCLVKGFYPSDIAVEWESNGQPENNYKTTPPVLDSDGSFFLYSKLTVDKSRWQQGNVFSCSVMHEALHNHYTQKSLSLSPGK
chain: EVQLVETGGGLIQPGGSLRLSCAASGFTVSDNYMTWVRQAPGKGLEWVSVIFSGGNTYYADSVKGRFTISRDNAKNTLYLQMNSLRAEDTALYYCARRNYDDTRGTDVFDIWGQGTMVTVSSRTGGGGSGGGGSGGGGSGGGGSGGGGSKLEVQLVETGGGLIQPGGSLRLSCAASGFTVSDNYMTWVRQAPGKGLEWVSVIFSGGNTYYADSVKGRFTISRDNAKNTLYLQMNSLRAEDTALYYCARRNYDDTRGTDVFDIWGQGTMVTVSSASEPKSSDKTHTCPPCPAPEAAGGPSVFLFPPKPKDTLMISRTPEVTCVVVDVSHEDPEVKFNWYVDGVEVHNAKTKPREEQYNSTYRVVSVLTVLHQDWLNGKEYKCKVSNKALGAPIEKTISKAKGQPREPQVCTLPPSREEMTKNQVSLSCAVKGFYPSDIAVEWESNGQPENNYKTTPPVLDSDGSFFLVSKLTVDKSRWQQGNVFSCSVMHEALHNHYTQKSLSLSPGK
B3: PR002328 (bispecific antibody, human IgG1, lambda, L234A L235A)
light: B1 light
heavy: B2 heavy
chain: EVQLVETGGGLIQPGGSLRLSCAASGFTVSSNYMTWVRQAPGKGLEWVSVIFSGGSTYYADSVKGRFTISRDNSKNTLYLQMNSLRAEDTAVYYCARRIAVAGHDVFDIWGQGTMVTVSSRTGGGGSGGGGSGGGGSGGGGSGGGGSKLEVQLVETGGGLIQPGGSLRLSCAASGFTVSDNYMTWVRQAPGKGLEWVSVIFSGGNTYYADSVKGRFTISRDNAKNTLYLQMNSLRAEDTALYYCARRNYDDTRGTDVFDIWGQGTMVTVSSASEPKSSDKTHTCPPCPAPEAAGGPSVFLFPPKPKDTLMISRTPEVTCVVVDVSHEDPEVKFNWYVDGVEVHNAKTKPREEQYNSTYRVVSVLTVLHQDWLNGKEYKCKVSNKALGAPIEKTISKAKGQPREPQVCTLPPSREEMTKNQVSLSCAVKGFYPSDIAVEWESNGQPENNYKTTPPVLDSDGSFFLVSKLTVDKSRWQQGNVFSCSVMHEALHNHYTQKSLSLSPGK
B4: PR002313 (bispecific antibody, human IgG1, lambda, L234A L235A)
light: B1 light
heavy: B2 heavy
chain: EVQLLESGGGLVQPGGSLRLSCAASGFTFSSYAMIWVRQAPGKGLEWVSGISESGGSTYYADSVKGRFTISRDNSKNTLYLQMNSLRAEDTAVYFCVKDLDDILTGYYKDYWGQGTLVTVSSRTGGGGSGGGGSGGGGSKLEVQLVETGGGLIQPGGSLRLSCAASGFPVSSNYMSWVRQAPGKGLEWVSVIFSGGRTYYADSVKGRFTISRDNSKNTLYLQMNSLRAEDTAVYYCARRNWIDGRDAFDIWGQGTMVTVSSASEPKSSDKTHTCPPCPAPEAAGGPSVFLFPPKPKDTLMISRTPEVTCVVVDVSHEDPEVKFNWYVDGVEVHNAKTKPREEQYNSTYRVVSVLTVLHQDWLNGKEYKCKVSNKALGAPIEKTISKAKGQPREPQVCTLPPSREEMTKNQVSLSCAVKGFYPSDIAVEWESNGQPENNYKTTPPVLDSDGSFFLVSKLTVDKSRWQQGNVFSCSVMHEALHNHYTQKSLSLSPGK
B5: PR002898 (bispecific antibody, human IgG1, lambda, L234A L235A)
light: B1 light
heavy: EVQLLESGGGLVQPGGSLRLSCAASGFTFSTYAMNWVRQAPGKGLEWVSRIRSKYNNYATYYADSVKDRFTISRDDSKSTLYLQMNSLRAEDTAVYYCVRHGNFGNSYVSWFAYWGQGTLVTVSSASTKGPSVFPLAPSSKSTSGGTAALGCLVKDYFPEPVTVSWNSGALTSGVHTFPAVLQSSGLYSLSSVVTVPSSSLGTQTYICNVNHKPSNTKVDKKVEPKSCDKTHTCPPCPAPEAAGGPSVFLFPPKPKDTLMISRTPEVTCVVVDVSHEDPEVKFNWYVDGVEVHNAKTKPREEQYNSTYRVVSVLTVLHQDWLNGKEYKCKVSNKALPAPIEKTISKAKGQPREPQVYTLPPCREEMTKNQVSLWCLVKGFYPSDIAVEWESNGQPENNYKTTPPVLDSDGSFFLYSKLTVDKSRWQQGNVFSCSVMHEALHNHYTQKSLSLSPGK
chain: EVQLVETGGGLIQPGGSLRLSCAASGFTVSDNYMTWVRQAPGKGLEWVSVIFSGGNTYYADSVKGRFTISRDNAKNTLYLQMNSLRAEDTALYYCARRNYDDTRGTDVFDIWGQGTMVTVSSGSEVQLVETGGGLIQPGGSLRLSCAASGFTVSDNYMTWVRQAPGKGLEWVSVIFSGGNTYYADSVKGRFTISRDNAKNTLYLQMNSLRAEDTALYYCARRNYDDTRGTDVFDIWGQGTMVTVSSASEPKSSDKTHTCPPCPAPEAAGGPSVFLFPPKPKDTLMISRTPEVTCVVVDVSHEDPEVKFNWYVDGVEVHNAKTKPREEQYNSTYRVVSVLTVLHQDWLNGKEYKCKVSNKALPAPIEKTISKAKGQPREPQVCTLPPSREEMTKNQVSLSCAVKGFYPSDIAVEWESNGQPENNYKTTPPVLDSDGSFFLVSKLTVDKSRWQQGNVFSCSVMHEALHNHYTQKSLSLSPGK
B6: PR002308 (bispecific antibody, human IgG1, lambda, L234A L235A)
light: B1 light
heavy: B2 heavy
chain: EVQLVETGGGLIQPGGSLRLSCAASGFTVSDNYMTWVRQAPGKGLEWVSVIFSGGNTYYADSVKGRFTISRDNAKNTLYLQMNSLRAEDTALYYCARRNYDDTRGTDVFDIWGQGTMVTVSSRTGGGGSKLEVQLVETGGGLIQPGGSLRLSCAASGFTVSDNYMTWVRQAPGKGLEWVSVIFSGGNTYYADSVKGRFTISRDNAKNTLYLQMNSLRAEDTALYYCARRNYDDTRGTDVFDIWGQGTMVTVSSASEPKSSDKTHTCPPCPAPEAAGGPSVFLFPPKPKDTLMISRTPEVTCVVVDVSHEDPEVKFNWYVDGVEVHNAKTKPREEQYNSTYRVVSVLTVLHQDWLNGKEYKCKVSNKALGAPIEKTISKAKGQPREPQVCTLPPSREEMTKNQVSLSCAVKGFYPSDIAVEWESNGQPENNYKTTPPVLDSDGSFFLVSKLTVDKSRWQQGNVFSCSVMHEALHNHYTQKSLSLSPGK
B7: PR002326 (bispecific antibody, human IgG1, lambda, L234A L235A)
light: B1 light
heavy: B2 heavy
chain: EVQLVETGGGLIQPGGSLRLSCAASGFTVSSNYMTWVRQAPGKGLEWVSVIFSGGSTYYADSVKGRFTISRDNSKNTLYLQMNSLRAEDTAVYYCARRIAVAGHDVFDIWGQGTMVTVSSRTGGGGSGGGGSGGGGSKLEVQLVETGGGLIQPGGSLRLSCAASGFTVSDNYMTWVRQAPGKGLEWVSVIFSGGNTYYADSVKGRFTISRDNAKNTLYLQMNSLRAEDTALYYCARRNYDDTRGTDVFDIWGQGTMVTVSSASEPKSSDKTHTCPPCPAPEAAGGPSVFLFPPKPKDTLMISRTPEVTCVVVDVSHEDPEVKFNWYVDGVEVHNAKTKPREEQYNSTYRVVSVLTVLHQDWLNGKEYKCKVSNKALGAPIEKTISKAKGQPREPQVCTLPPSREEMTKNQVSLSCAVKGFYPSDIAVEWESNGQPENNYKTTPPVLDSDGSFFLVSKLTVDKSRWQQGNVFSCSVMHEALHNHYTQKSLSLSPGK
B8: PR002956 (bispecific antibody, human IgG1, lambda, L234A L235A)
light: B1 light
heavy: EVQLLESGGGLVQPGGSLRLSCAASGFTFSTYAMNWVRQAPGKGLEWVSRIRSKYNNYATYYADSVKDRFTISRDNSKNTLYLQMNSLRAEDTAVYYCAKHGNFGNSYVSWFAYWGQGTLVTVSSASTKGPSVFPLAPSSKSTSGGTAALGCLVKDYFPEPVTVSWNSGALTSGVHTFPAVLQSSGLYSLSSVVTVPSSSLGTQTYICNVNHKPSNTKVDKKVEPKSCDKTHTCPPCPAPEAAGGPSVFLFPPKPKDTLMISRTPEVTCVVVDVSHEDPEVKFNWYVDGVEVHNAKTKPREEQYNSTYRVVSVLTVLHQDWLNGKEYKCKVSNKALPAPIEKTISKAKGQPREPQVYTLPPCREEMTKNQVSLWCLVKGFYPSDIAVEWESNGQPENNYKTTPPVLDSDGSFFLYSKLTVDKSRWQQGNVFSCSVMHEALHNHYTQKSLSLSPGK
chain: B5 chain
B9: PR002950 (bispecific antibody, human IgG1, lambda, L234A L235A)
light: B1 light
heavy: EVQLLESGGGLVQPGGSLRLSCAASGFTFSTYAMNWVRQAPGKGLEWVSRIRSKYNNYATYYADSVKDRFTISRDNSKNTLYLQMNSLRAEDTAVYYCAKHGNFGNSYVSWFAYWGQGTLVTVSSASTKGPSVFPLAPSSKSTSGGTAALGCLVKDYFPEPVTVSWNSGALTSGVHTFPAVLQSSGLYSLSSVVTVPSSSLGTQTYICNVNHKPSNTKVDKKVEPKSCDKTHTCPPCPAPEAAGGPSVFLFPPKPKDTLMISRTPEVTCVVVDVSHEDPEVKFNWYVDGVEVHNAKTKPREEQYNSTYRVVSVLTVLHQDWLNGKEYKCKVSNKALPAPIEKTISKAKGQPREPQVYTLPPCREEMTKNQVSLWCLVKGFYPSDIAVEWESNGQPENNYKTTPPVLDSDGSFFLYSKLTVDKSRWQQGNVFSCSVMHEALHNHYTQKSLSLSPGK
chain: B1 chain

In the first experiment the target is T2, cynomolgus monkey BCMA (cynomolgus monkey, UniProt A0A2K5UD97 1-183).
T2 construct: whole, on cells; also called cyno BCMA
T2 sequence (A0A2K5UD97 entry or part of it): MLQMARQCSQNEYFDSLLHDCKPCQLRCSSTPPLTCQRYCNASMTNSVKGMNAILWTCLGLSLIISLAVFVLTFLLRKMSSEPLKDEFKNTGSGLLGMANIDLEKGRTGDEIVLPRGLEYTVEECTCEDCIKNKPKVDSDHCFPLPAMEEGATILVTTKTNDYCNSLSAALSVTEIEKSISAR
Briefly: FACS on HEK293T/cyno BCMA cells.
Method: (§1) This example is intended to investigate the binding activity of anti-BCMA HCAb antibodies to human and cynomolgus monkey BCMAs. […] Specifically, HEK293T/hBCMA cells and HEK293T/cyno BCMA cells were digested and resuspended in a DMEM complete medium. In addition, NCI-H929 cell suspension was collected. The density of each of the three cells was adjusted to 1×10⁶ cells/mL. […] The cells were incubated at 4° C. for 1 h away from light. Thereafter, the cells in each well were rinsed twice with 100 μL of pre-cooled PBS, and centrifuged at 500 g at 4° C. for 5 min, and then the supernatant was discarded. […] The cells in each well were rinsed twice with 100 μL of pre-cooled PBS, and centrifuged at 500 g at 4° C. for 5 min, and then the supernatant was discarded. Finally, the cells in each well were resuspended in 200 μL of pre-cooled PBS. Fluorescence signal values were read using a BD FACS CANTOII flow cytometer or an ACEA NovoCyte flow cytometer, and the data were processed and analyzed using FlowJo v10 (FlowJo, LLC) software. The data were processed and analyzed by plotting using GraphPad Prism 8 software, and binding curves of the antibodies to target cells, EC₅₀ values and other parameters were obtained through four-parameter nonlinear fitting.
Turning to B1, the “Maximum MFI” value was determined as 15000.
On the same count and under the same terms, then B2, with 42000.
Still for that read-out and setting: to B3 belongs 7810; to B4, 7610; to B5, 8190.
On the same count and under the same terms, then B6, with 39300; and B7, with 6440.
B8: the “Maximum MFI” value is 16200.
On the same count and under the same terms, then B9, with 26600.

In another experiment the target is T1, human BCMA. Nature of the experiment: FACS on NCI-H929 cells.
B1: the EC50 turned out to be 4.27 nM and the “Maximum MFI” value turned out to be 4360.
B2: the 50% effective concentration (EC50) was 2.09 nM and the “Maximum MFI” value worked out at 61300.
For B3 the same measures were 6.89 nM and 58900.
On to B4, for which a half-maximal response (EC50) required 17.1 nM and the “Maximum MFI” value came to 78000.
For B5 the same measures were 1.94 nM and 3730.
For B6 the same measures were 1.82 nM and 63900.
For B7 the same measures were 3.54 nM and 60000.
As to B8, the 50% effective concentration (EC50) came to 3.95 nM and the “Maximum MFI” value came out at 3570.
The matching figures for B9: 4.11 nM and 4190.

The next experiment concerns the target T1, human BCMA. Briefly: FACS on HEK293T/hBCMA cells, Experiment 2.
Method: as §1
For the molecule B1, the response was half-maximal at 0.767 nM (EC50) and the “Maximum MFI” value was 15500.
As to B5, a half-maximal effect (EC50) was put at 0.791 nM and the “Maximum MFI” value was determined as 12600.
B8: the “Maximum MFI” value came out at 17600.
Still for that read-out and setting: to B9 belongs 22100.
